B1: Grainyhead-like protein 2 homolog (Homo sapiens), Q6ISB3 (parent)
chain: MSQESDNNKRLVALVPMPSDPPFNTRRAYTSEDEAWKSYLENPLTAATKAMMSINGDEDSAAALGLLYDYYKVPRDKRLLSVSKASDSQEDQEKRNCLGTSEAQSNLSGGENRVQVLKTVPVNLSLNQDHLENSKREQYSISFPESSAIIPVSGITVVKAEDFTPVFMAPPVHYPRGDGEEQRVVIFEQTQYDVPSLATHSAYLKDDQRSTPDSTYSESFKDAATEKFRSASVGAEEYMYDQTSSGTFQYTLEATKSLRQKQGEGPMTYLNKGQFYAITLSETGDNKCFRHPISKVRSVVMVVFSEDKNRDEQLKYWKYWHSRQHTAKQRVLDIADYKESFNTIGNIEEIAYNAVSFTWDVNEEAKIFITVNCLSTDFSSQKGVKGLPLMIQIDTYSYNNRSNKPIHRAYCQIKVFCDKGAERKIRDEERKQNRKKGKGQASQTQCNSSSDGKLAAIPLQKKSDITYFKTMPDLHSQPVLFIPDVHFANLQRTGQVYYNTDDEREGGSVLVKRMFRPMEEEFGPVPSKQMKEEGTKRVLLYVRKETDDVFDALMLKSPTVKGLMEAISEKYGLPVEKIAKLYKKSKKGILVNMDDNIIEHYSNEDTFILNMESMVEGFKVTLMEI
partner: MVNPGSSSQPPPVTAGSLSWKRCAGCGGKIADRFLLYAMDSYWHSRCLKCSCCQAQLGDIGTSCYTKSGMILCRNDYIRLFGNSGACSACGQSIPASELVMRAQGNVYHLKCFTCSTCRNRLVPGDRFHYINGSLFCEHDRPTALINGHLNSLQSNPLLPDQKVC
B2: Cyclic AMP-responsive element-binding protein 3-like protein 1 (Homo sapiens), Q96BA8 (parent)
chain: MDAVLEPFPADRLFPGSSFLDLGDLNESDFLNNAHFPEHLDHFTENMEDFSNDLFSSFFDDPVLDEKSPLLDMELDSPTPGIQAEHSYSLSGDSAPQSPLVPIKMEDTTQDAEHGAWALGHKLCSIMVKQEQSPELPVDPLAAPSAMAAAAAMATTPLLGLSPLSRLPIPHQAPGEMTQLPVIKAEPLEVNQFLKVTPEDLVQMPPTPPSSHGSDSDGSQSPRSLPPSSPVRPMARSSTAISTSPLLTAPHKLQGTSGPLLLTEEEKRTLIAEGYPIPTKLPLTKAEEKALKRVRRKIKNKISAQESRRKKKEYVECLEKKVETFTSENNELWKKVETLENANRTLLQQLQKLQTLVTNKISRPYKMAATQTGTCLMVAALCFVLVLGSLVPCLPEFSSGSQTVKEDPLAADGVYTASQMPSRSLLFYDDGAGLWEDGRSTLLPMEPPDGWEINPGGPAEQRPRDHLQHDHLDSTHETTKYLSEAWPKDGGNGTSPDFSHSKEWFHDRDLGPNTTIKLS
B3: Carbonyl reductase [NADPH] 3 (Homo sapiens), O75828 (parent)
chain: MSSCSRVALVTGANRGIGLAIARELCRQFSGDVVLTARDVARGQAAVQQLQAEGLSPRFHQLDIDDLQSIRALRDFLRKEYGGLNVLVNNAAVAFKSDDPMPFDIKAEMTLKTNFFATRNMCNELLPIMKPHGRVVNISSLQCLRAFENCSEDLQERFHSETLTEGDLVDLMKKFVEDTKNEVHEREGWPNSPYGVSKLGVTVLSRILARRLDEKRKADRILVNACCPGPVKTDMDGKDSIRTVEEGAETPVYLALLPPDATEPQGQLVHDKVVQNW
B4: Beta-taxilin (Homo sapiens), Q8N3L3 (parent)
chain: MEANHSEQLSAERQSTPPGDSSSLPSHNGLEKEDGQDSPTPVQPPEKEASVHPDISEELNRQLEDIINTYGSAASTAGKEGSARASEQPENAESPDNEDGDCEETTEEAGREPVASGEPPTVKEPVSNKEQKLEKKILKGLGKEANLLMQNLNKLQTPEEKFDFLFKKYAELLDEHRTEQKKLKLLQKKQVQIQKEKDQLQGEHSRAILARSKLESLCRELQRHNKTLKEEALQRAREEEEKRKEITSHFQSTLTDIQGQIEQQSERNMKLCQENTELAEKLKSIIDQYELREEHLDKIFKHRELQQKLVDAKLEQAQEMMKEAEERHKREKEYLLNQAAEWKLQAKVLKEQETVLQAQLTLYSGRFEEFQSTLTKSNEVFATFKQEMDKTTKKMKKLEKDTATWKARFENCNKALLDMIEEKALRAKEYECFVMKIGRLENLCRALQEERNELHKKIRDAEISEKDDQSQHNSDEEPESNVSVDQEIDAEEVNSVQTAVKNLATAFMIIHHPESTPHQSKETQPEIGSSQESADAALKEPEQPPLIPSRDSESPLPPLTPQAEAEGGSDAEPPSKASNSPAGLGAETQCEGLPVGAQADQASWKPEAEASGQAPQAPTEASLQKMEADVPAPACAAEEHVAAMVPACEPSRQPPRAAAEELPVGASAGPQPRNVADTNLEGVD
partner: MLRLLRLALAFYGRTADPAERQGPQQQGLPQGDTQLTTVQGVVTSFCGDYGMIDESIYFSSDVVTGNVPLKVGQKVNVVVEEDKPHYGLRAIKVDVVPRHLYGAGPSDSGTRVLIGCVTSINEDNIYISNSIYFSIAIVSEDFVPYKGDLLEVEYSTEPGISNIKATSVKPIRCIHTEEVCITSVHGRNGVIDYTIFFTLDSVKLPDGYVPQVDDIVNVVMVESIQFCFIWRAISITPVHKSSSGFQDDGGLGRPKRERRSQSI
B5: Medium-chain acyl-CoA ligase ACSF2, mitochondrial (Homo sapiens), Q96CM8 (parent)
chain: MAVYVGMLRLGRLCAGSSGVLGARAALSRSWQEARLQGVRFLSSREVDRMVSTPIGGLSYVQGCTKKHLNSKTVGQCLETTAQRVPEREALVVLHEDVRLTFAQLKEEVDKAASGLLSIGLCKGDRLGMWGPNSYAWVLMQLATAQAGIILVSVNPAYQAMELEYVLKKVGCKALVFPKQFKTQQYYNVLKQICPEVENAQPGALKSQRLPDLTTVISVDAPLPGTLLLDEVVAAGSTRQHLDQLQYNQQFLSCHDPINIQFTSGTTGSPKGATLSHYNIVNNSNILGERLKLHEKTPEQLRMILPNPLYHCLGSVAGTMMCLMYGATLILASPIFNGKKALEAISRERGTFLYGTPTMFVDILNQPDFSSYDISTMCGGVIAGSPAPPELIRAIINKINMKDLVVAYGTTENSPVTFAHFPEDTVEQKAESVGRIMPHTEARIMNMEAGTLAKLNTPGELCIRGYCVMLGYWGEPQKTEEAVDQDKWYWTGDVATMNEQGFCKIVGRSKDMIIRGGENIYPAELEDFFHTHPKVQEVQVVGVKDDRMGEEICACIRLKDGEETTVEEIKAFCKGKISHFKIPKYIVFVTNYPLTISGKIQKFKLREQMERHLNL

Variants of: B1
Conditions: with lmo4_human LMO4, P61968

Row | Variant | effect of a mutation on the interaction
1 | K9R | with no effect

Variants of: B2
Conditions: with gpr25_human GPR25, O00155
Sequence of gpr25_human GPR25, O00155 (O00155 whole entry): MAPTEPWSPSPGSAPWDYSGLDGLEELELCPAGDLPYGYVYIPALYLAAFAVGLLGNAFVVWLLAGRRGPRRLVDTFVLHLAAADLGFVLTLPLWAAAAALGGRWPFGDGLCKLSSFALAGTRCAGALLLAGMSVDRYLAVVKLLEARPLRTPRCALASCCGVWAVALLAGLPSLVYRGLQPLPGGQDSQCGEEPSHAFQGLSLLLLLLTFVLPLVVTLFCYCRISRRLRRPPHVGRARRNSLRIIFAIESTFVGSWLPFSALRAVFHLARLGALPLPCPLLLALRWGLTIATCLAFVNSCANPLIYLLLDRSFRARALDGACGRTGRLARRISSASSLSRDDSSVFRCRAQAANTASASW

Row | Variant | effect of a mutation on the interaction
2 | MDAVLEPFPADRLFPGSSFLDLGDLNESDFLNNAHFPEHLDHFTENMEDFSNDLFSSFFDDPVLDEKSPLLDMELDSPTPGIQAEHSYSLSGDSAPQSPLVPIKMEDTTQDAEHGAWALGHKLCSIMVKQEQSPELPVDPLAAPSAMAAAAAMATTPLLGLSPLSRLPIPHQAPGEMTQLPVIKAEPLEVNQFLKVTPEDLVQMPPTPPSSHGSDSDGSQSPRSLPPSSPVRPMARSSTAISTSPLLTAPHKLQGTSGPLLLTEEEKRTLIAEGYPIPTKLPLTKAEEKALKRVRRKIKNKISAQESRRKKKEYVECLEKKVETFTSENNELWKKVETLENANRTLLQQLQKLQTLVTNKISRPYKMAATQTGTCLMVAALCFVLVLGSLVPCLPEFSSGSQTVKEDPLAADGVYTASQMPSRSLLFYDDGAGLWEDGRSTLLPMEPPDGWEINPGGPAEQRPRDHLQHDHLDSTHETTKYLSEAWPKDGGNGTSPDFSHSKEWFHDRDLGPNTTSKLS [I516S] | with no effect
3 | MDAVLEPFPADRLFPGSSFLDLGDLNESDFLNNAHFPEHLDHFTENMEDFSNDLFSSFFDDPVLDEKSPLLDMELDSPTPGIQAEHSYSLSGDSAPQSPLVPIKMEDTTQDAEHGAWALGHKLCSIMVKQEQSPELPVDPLAAPSAMAAAATMATTPLLGLSPLSRLPIPHQAPGEMTQLPVIKAEPLEVNQFLKVTPEDLVQMPPTPPSSHGSDSDGSQSPRSLPPSSPVRPMARSSTAISTSPLLTAPHKLQGTSGPLLLTEEEKRTLIAEGYPIPTKLPLTKAEEKALKRVRRKIKNKISAQESRRKKKEYVECLEKKVETFTSENNELWKKVETLENANRTLLQQLQKLQTLVTNKISRPYKMAATQTGTCLMVAALCFVLVLGSLVPCLPEFSSGSQTVKEDPLAADGVYTASQMPSRSLLFYDDGAGLWEDGRSTLLPMEPPDGWEINPGGPAEQRPRDHLQHDHLDSTHETTKYLSEAWPKDGGNGTSPDFSHSKEWFHDRDLGPNTTIKLS [A152T] | with no effect

Variants of: B2
Conditions: with tm147_human TMEM147, Q9BVK8
Sequence of tm147_human TMEM147, Q9BVK8 (Q9BVK8 whole entry): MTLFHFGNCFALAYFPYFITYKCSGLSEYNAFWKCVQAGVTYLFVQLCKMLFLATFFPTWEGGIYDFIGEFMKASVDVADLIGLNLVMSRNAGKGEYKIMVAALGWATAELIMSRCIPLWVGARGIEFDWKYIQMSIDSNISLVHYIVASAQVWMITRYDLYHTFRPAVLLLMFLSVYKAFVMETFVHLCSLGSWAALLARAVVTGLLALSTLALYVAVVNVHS

Row | Variant | effect of a mutation on the interaction
4 | MDAVLEPFPADRLFPGSSFLDLGDLNESDFLNNAHFPEHLDHFTENMEDFSNDLFSSFFDDPVLDEKSPLLDMELDSPTPGIQAEHSYSLSGDSAPQSPLVPIKMEDTTQDAEHGAWALGHKLCSIMVKQEQSPELPVDPLAAPSAMAAAAAMATTPLLGLSPLSRLPIPHQAPGEMTQLPVIKAEPLEVNQFLKVTPEDLVQMPPTPPSSHGSDSDGSQSPRSLPPSSPVRPMARSSTAISTSPLLTAPHKLQGTSGPLLLTEEEKRTLIAEGYPIPTKLPLTKAEEKALKRVRRKIKNKISAQESRRKKKEYVECLEKKVETFTSENNELWKKVETLENANRTLLQQLQKLQTLVTNKISRPYKMAATQTGTCLMVAALCFVLVLGSLVPCLPEFSSGSQTVKEDPLAADGVYTASQMPSRSLLFYDDGAGLWEDGRSTLLPMEPPDGWEINPGGPAEQRPRDHLQHDHLDSTHETTKYLSEAWPKDGGNGTSPDFSHSKEWFHDRDLGPNTTSKLS [I516S] | with no effect
5 | MDAVLEPFPADRLFPGSSFLDLGDLNESDFLNNAHFPEHLDHFTENMEDFSNDLFSSFFDDPVLDEKSPLLDMELDSPTPGIQAEHSYSLSGDSAPQSPLVPIKMEDTTQDAEHGAWALGHKLCSIMVKQEQSPELPVDPLAAPSAMAAAATMATTPLLGLSPLSRLPIPHQAPGEMTQLPVIKAEPLEVNQFLKVTPEDLVQMPPTPPSSHGSDSDGSQSPRSLPPSSPVRPMARSSTAISTSPLLTAPHKLQGTSGPLLLTEEEKRTLIAEGYPIPTKLPLTKAEEKALKRVRRKIKNKISAQESRRKKKEYVECLEKKVETFTSENNELWKKVETLENANRTLLQQLQKLQTLVTNKISRPYKMAATQTGTCLMVAALCFVLVLGSLVPCLPEFSSGSQTVKEDPLAADGVYTASQMPSRSLLFYDDGAGLWEDGRSTLLPMEPPDGWEINPGGPAEQRPRDHLQHDHLDSTHETTKYLSEAWPKDGGNGTSPDFSHSKEWFHDRDLGPNTTIKLS [A152T] | with no effect

Variants of: B3
Conditions: with sdcb1_human SDCBP

Row | Variant | effect of a mutation on the interaction
6 | MSSCSRVALVTGANRGIGLAIARELCRQFSGDVVLTARDVARGQAAVQQLQAEGLSPRFHQLDIDDLQSIRALRDFLRKEYGGLNVLVNNAAVAFKSDDPMPFDIKAEMTLKTNFFATRNMCNELLPIMKSHGRVVNISSLQCLRAFENCSEDLQERFHSETLTEGDLVDLMKKFVEDTKNEVHEREGWPNSPYGVSKLGVTVLSRILARRLDEKRKADRILVNACCPGPVKTDMDGKDSIRTVEEGAETPVYLALLPPDATEPQGQLVHDKVVQNW [P131S] | with no effect
7 | MSSCSRVALVTGANRGIGLAIARELCRQFSGDVVLTARDVARGQAAVQQLQAEGLSPRFHQLDIDDLQSIRALRDFLRKEYGGLNVLVNNAAVAFKSDDPMPFDIKAEMTLKTNFFATRNMCNELLPIMKPHGRVVNISSLQCLRAFENCSEDLQERFHSETLTEGDLVDLMKKFVEDTKNEVHEREGWPNSPYGVSKLGVTVLSRILARRLDEKRKADRILVNACCPGPVKTDMDGKDSIRTMEEGAETPVYLALLPPDATEPQGQLVHDKVVQNW [V244M] | with no effect

Variants of: B4
Conditions: with ct55_human CT55, Q8WUE5

Row | Variant | effect of a mutation on the interaction
8 | T361A | with no effect
9 | T523I | with no effect

Variants of: B5
Conditions: with atrap_human AGTRAP

Row | Variant | effect of a mutation on the interaction
10 | A34V | disrupting interaction strength

Variants of: B5
Conditions: with ar6p1_human ARL6IP1, Q15041
Sequence of ar6p1_human ARL6IP1, Q15041 (Q15041 whole entry): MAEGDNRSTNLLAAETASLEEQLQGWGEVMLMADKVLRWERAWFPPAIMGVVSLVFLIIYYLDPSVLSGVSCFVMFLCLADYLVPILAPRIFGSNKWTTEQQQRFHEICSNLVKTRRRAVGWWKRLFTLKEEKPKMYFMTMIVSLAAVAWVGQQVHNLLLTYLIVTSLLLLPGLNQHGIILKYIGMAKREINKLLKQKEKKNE

Row | Variant | effect of a mutation on the interaction
11 | A34V | disrupting interaction strength
